This note sets out measurements from patent US20190307899A1, “JUNCTOPHILIN-2 FRAGMENTS AND USES THEREFOR” (University of Lowa Research Foundation, published 2019).

The target of data set [1] is T1, full-length JP2 Δ(563-568) with N-terminal FLAG and C-terminal HA tags.
T1 chain: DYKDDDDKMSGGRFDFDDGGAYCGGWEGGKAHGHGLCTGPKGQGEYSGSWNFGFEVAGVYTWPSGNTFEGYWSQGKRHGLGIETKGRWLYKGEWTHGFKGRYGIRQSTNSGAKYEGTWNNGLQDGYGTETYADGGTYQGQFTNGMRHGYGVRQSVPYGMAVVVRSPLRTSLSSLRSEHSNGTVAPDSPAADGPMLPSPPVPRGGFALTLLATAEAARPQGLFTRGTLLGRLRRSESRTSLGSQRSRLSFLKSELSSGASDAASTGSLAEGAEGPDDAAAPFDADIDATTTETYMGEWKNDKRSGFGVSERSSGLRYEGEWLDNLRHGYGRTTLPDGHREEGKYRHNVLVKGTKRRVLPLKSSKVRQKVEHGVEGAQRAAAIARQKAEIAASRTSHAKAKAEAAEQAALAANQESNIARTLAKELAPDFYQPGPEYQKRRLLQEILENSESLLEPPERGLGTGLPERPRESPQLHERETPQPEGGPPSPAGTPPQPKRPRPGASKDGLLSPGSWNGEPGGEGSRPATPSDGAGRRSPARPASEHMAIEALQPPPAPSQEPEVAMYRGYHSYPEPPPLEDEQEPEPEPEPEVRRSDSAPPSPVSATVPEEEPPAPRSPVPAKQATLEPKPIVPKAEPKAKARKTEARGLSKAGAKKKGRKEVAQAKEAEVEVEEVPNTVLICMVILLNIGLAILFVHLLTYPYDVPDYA

Data set [2] has as its target T2, JP2(1-565) truncation with N-terminal FLAG tag (plasmid construct of FIG. 4).
T2 chain: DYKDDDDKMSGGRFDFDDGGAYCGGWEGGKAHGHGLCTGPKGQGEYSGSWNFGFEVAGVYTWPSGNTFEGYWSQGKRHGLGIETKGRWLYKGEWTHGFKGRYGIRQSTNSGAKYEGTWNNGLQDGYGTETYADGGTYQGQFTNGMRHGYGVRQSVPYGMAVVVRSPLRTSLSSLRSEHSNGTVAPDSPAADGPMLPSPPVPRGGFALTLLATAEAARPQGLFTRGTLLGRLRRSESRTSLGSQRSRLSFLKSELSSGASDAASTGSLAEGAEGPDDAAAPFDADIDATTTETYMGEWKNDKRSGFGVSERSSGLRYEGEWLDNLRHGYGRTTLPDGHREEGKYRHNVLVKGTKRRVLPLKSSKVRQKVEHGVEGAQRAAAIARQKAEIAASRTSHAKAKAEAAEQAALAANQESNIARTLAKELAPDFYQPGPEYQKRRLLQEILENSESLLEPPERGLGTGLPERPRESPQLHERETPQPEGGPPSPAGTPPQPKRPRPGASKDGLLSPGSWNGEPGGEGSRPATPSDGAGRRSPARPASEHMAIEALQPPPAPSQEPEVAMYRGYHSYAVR

For data set [3], the target named is T3, full-length JP2 Δ(198-205) with N-terminal FLAG and C-terminal HA tags.
T3 chain: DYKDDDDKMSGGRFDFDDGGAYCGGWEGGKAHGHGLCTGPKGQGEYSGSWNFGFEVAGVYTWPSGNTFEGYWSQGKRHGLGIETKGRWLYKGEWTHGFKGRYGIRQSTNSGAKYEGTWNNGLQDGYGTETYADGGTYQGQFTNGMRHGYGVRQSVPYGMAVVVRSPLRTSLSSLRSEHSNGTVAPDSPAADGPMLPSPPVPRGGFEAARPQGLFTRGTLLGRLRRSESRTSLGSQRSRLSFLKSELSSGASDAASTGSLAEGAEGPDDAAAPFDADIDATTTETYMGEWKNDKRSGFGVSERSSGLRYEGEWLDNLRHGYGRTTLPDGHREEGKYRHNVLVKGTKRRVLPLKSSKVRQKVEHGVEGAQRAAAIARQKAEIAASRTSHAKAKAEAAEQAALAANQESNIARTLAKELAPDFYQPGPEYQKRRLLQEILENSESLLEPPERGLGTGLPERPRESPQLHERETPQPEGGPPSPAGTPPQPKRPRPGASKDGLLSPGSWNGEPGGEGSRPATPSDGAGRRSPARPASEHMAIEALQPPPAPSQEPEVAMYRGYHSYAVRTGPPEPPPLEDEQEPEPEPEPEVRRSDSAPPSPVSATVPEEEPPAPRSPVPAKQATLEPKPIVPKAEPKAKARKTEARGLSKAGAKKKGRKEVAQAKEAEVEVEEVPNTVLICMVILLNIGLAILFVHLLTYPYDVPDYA

Data set [4] has as its target T4, junctophilin-2 (JP2), human, in human heart lysates, Q9BR39.
T4 chain: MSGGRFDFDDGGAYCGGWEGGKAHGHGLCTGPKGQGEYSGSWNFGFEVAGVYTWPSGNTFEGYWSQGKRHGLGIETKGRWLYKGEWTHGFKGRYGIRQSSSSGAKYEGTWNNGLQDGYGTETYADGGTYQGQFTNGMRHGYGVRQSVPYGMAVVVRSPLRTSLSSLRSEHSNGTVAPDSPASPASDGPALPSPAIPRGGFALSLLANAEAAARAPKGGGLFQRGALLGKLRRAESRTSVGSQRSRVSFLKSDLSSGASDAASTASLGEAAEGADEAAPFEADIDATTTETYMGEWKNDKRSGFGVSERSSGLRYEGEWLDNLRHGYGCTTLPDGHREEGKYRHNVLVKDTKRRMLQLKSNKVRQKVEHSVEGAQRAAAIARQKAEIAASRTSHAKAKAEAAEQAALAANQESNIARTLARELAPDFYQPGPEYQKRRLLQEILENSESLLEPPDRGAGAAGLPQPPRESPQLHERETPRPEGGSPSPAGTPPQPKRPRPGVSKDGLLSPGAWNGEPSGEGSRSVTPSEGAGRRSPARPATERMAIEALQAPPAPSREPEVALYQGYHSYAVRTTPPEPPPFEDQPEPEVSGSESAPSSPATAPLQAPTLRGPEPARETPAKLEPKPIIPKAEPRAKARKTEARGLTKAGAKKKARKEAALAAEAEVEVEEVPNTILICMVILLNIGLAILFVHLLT

The target of data set [5] is T5, junctophilin-2 (JP2), murine, full length, untagged.
T5 chain: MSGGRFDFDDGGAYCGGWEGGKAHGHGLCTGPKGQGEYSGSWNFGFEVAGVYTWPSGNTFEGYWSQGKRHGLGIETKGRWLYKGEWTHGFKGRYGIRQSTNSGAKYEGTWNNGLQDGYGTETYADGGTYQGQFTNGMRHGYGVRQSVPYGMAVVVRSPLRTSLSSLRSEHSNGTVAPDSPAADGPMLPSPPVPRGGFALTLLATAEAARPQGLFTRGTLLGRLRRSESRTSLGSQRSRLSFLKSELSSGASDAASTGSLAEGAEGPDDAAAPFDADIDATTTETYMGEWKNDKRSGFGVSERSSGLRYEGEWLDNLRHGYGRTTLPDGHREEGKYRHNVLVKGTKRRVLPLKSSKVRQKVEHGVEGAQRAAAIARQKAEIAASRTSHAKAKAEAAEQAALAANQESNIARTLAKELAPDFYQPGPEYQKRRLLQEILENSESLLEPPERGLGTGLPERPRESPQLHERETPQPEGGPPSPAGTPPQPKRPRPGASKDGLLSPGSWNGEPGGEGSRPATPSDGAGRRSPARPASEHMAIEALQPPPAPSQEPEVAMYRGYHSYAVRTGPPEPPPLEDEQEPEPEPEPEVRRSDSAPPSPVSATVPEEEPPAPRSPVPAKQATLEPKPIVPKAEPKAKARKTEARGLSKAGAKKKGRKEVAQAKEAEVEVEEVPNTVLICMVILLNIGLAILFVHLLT

Data set [6] concerns the target T6, full-length JP2 Δ(153-158) with N-terminal FLAG and C-terminal HA tags.
T6 chain: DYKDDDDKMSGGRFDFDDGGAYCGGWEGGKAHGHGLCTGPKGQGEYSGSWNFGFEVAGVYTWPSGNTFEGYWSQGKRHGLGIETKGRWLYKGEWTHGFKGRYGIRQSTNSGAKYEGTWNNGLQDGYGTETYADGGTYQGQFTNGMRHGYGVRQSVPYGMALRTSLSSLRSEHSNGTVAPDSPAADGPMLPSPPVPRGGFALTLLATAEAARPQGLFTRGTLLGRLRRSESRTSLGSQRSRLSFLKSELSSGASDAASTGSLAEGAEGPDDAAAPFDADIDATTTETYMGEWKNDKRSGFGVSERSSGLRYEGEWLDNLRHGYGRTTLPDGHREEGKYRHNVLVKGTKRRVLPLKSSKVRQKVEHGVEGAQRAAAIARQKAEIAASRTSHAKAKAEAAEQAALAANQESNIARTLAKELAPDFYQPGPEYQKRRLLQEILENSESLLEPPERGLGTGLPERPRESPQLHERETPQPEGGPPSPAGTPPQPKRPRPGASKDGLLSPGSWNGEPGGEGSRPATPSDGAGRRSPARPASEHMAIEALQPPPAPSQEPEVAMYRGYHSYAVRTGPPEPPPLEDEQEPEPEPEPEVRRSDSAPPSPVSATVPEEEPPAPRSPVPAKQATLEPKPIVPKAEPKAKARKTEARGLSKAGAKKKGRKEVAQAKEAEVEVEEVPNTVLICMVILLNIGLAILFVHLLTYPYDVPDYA

In data set [7] the target is T7, Cav1.2 (voltage-gated L-type Ca2+ channel) (mouse, UniProt Q01815 1-2139).
T7 construct: Endogenous prey of the co-immunoprecipitation
Put plainly: co-immunoprecipitation with anti-HA, Western blot.

Data set [8] has as its target T8, type 2 ryanodine receptor (mouse, UniProt E9Q401 1-4966, limits assumed).
T8 construct: Endogenous prey of the co-immunoprecipitation; also called RyR2
Put plainly: co-immunoprecipitation with anti-HA, Western blot. (Immunoblotting shows a protein as a band on a membrane.)

The target in data set [9] is GST-JP2NT (junctophilin-2 residues 1-565) (Mus musculus, UniProt Q9ET78 SEQ:1-565). In words: EMSA. The note with it: tags: GST. On the technique in general: A gel shift assay detects complexes by their altered migration in electrophoresis.

T7 sequence (Q01815 whole entry): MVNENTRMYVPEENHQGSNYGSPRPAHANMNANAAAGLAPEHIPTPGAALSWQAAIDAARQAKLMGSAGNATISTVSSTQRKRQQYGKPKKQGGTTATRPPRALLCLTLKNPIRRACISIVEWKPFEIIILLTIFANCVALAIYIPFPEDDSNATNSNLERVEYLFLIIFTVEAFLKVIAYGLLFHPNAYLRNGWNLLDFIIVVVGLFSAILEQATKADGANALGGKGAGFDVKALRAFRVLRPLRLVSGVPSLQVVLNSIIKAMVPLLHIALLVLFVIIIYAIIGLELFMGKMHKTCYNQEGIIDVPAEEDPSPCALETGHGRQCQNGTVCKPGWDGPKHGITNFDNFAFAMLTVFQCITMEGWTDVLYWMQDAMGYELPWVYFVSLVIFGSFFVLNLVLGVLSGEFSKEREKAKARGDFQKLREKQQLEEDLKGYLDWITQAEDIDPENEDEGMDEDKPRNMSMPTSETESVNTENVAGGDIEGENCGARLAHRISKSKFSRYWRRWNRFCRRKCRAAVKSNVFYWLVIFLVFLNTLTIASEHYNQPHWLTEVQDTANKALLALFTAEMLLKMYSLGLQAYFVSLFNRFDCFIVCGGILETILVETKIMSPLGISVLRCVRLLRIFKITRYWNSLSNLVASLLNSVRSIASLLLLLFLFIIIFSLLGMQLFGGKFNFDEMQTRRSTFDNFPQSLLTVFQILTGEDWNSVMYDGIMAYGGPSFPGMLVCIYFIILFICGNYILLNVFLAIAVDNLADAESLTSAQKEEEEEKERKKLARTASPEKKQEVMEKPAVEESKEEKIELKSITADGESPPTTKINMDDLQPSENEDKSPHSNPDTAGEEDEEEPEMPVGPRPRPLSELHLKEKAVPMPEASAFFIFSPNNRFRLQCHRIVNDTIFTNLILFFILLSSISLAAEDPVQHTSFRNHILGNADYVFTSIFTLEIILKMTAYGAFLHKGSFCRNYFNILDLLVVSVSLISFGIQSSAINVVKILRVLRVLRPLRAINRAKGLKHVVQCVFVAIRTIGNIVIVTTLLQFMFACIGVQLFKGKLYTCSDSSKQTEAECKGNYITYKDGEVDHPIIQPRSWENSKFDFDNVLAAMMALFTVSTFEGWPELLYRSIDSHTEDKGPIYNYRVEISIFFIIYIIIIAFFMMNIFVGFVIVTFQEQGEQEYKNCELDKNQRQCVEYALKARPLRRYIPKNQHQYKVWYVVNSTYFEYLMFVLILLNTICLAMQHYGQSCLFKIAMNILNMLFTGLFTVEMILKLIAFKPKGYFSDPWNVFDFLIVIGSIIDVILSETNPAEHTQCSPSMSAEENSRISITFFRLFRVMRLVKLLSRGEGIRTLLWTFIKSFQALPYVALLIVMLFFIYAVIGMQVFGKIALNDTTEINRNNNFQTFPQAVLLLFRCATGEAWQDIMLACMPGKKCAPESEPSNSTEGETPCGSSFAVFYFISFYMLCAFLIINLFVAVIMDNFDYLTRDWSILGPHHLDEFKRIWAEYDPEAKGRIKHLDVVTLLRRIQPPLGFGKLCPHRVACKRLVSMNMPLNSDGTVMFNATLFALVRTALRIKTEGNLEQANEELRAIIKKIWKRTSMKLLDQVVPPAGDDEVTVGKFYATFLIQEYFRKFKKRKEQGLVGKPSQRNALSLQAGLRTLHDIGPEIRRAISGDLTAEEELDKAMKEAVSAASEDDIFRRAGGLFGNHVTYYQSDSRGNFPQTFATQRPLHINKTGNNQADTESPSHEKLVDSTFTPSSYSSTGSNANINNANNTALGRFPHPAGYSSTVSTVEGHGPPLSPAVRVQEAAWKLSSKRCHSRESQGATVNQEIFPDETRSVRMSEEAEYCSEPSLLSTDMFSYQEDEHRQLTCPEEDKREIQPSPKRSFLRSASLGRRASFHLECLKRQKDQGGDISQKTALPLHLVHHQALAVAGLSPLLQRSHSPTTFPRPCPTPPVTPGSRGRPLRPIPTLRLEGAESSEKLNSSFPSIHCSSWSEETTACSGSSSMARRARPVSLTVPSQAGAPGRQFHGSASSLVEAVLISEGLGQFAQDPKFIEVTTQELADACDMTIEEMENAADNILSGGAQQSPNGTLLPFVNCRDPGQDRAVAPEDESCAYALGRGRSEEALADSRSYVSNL

B1: purified human calpain I (protein)
chain: SEEIITPVYCTGVSAQVQKQRARELGLGRHENAIKYLGQDYEQLRVRCLQSGTLFRDEAFPPVPQSLGYKDLGPNSSKTYGIKWKRPTELLSNPQFIVDGATRTDICQGALGDCWLLAAIASLTLNDTLLHRVVPHGQSFQNGYAGIFHFQLWQFGEWVDVVVDDLLPIKDGKLVFVHSAEGNEFWSALLEKAYAKVNGSYEALSGGSTSEGFEDFTGGVTEWYELRKAPSDLYQIILKALERGSLLGCSIDISSVLDMEAITFKKLVKGHAYSVTGAKQVNYRGQVVSLIRMRNPWGEVEWTGAWSDSSSEWNNVDPYERDQLRVKMEDGEFWMSFRDFMREFTRLEICNLTPDALKSRTIRKWNTTLYEGTWRRGSTAGGCRNYPATFWVNPQFKIRLDETDDPDDYGDRESGCSFVLALMQKHRRRERRFGRDMETIGFAVYEVPPELVGQPAVHLKRDFFLANASRARSEQFINLREVSTRFRLPPGEYVVVPSTFEPNKEGDFVLRFFSEKSAGTVELDDQIQANLPDEQVLSEEEIDENFKALFRQLAGEDMEISVKELRTILNRIISKHKDLRTKGFSLESCRSMVNLMDRDGNGKLGLVEFNILWNRIRNYLSIFRKFDLDKSGSMSAYEMRMAIESAGFKLNKKLYELIITRYSEPDLAVDFDNFVCCLVRLETMFRFFKTLDTDLDGVVTFDLFKWLQLTMFA
With B1, the “in vitro calpain cleavage assay, Western blot” value was “led to complete loss of N-IV (FIG. 4D, d) and a severe reduction in C-I” in data set [1]; “resulted in complete loss of the JP2 cleavage product N-II but had no effect on the generation of N-I” in data set [3]; “completely abolished the generation of N-I in the in vitro calpain cleavage assay” in data set [6]. In [2], the “in vitro calpain cleavage, Western blot with anti-FLAG” value was “this fragment can be further processed by calpain to generate N-I, N-II, and N-III fragments”. The “in vitro calpain cleavage of human heart lysates, Western blot of JP2” value in [4] is “time-dependent and Ca^2+/calpain-dependent JP2 down-regulation”. Moreover, the “in vitro calpain cleavage of WT mouse heart lysates, Western blot of full-length JP2” value in data set [5] is “significant reduction in full-length JP2 upon addition of calpain I”.

B2: JP2(566-end)-HA (other)
chain: TGPPEPPPLEDEQEPEPEPEPEVRRSDSAPPSPVSATVPEEEPPAPRSPVPAKQATLEPKPIVPKAEPKAKARKTEARGLSKAGAKKKGRKEVAQAKEAEVEVEEVPNTVLICMVILLNIGLAILFVHLLTYPYDVPDYA
notes: also called JP(566-end); Ad-JP2(566-end)
With B2, the binding result in [7] and in [8] was “no binding” each time.

B3: TATA box variant TATAAT (dsDNA)
DNA 1: GGGATCTGAGTCGCAGTATAATAGAAGCTTTTCGGGCGTT
DNA 2: AACGCCCGAAAAGCTTCTATTATACTGCGACTCAGATCCC
modifications: [22]
With B3, the binding result in data set [9] was “binds”.
